Assay results reported in US20250059285A1 (ARGENX, published 2025).

Key:
human Gal10-His [1] = target: T1, human Gal10-His (human, UniProt Q05315 2-142, limits assumed); assay: SPR Biacore 3000, hFab on human Gal10-His captured by anti-His CM5
T1 construct: also called hGal10-His; human Gal10-His tagged; not shown: His tag
T1 sequence: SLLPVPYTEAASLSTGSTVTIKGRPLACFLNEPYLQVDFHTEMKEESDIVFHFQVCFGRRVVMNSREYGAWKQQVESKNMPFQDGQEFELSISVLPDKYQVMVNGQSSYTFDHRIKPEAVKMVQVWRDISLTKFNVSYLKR
Description: (§1) The binding properties of the selected clones to human and cynomolgus Gal10 was analyzed via a capture method established on a Biacore 3000 instrument.
(§2) For this purpose, two approaches were used. In the first, two concentrations of the selected clones were applied on cynomolgus (WGS isoform) Gal10-His capture on a CM5 chip coated with a monoclonal anti-His antibody. The second approach involved a serial dilution that was applied on human or cynomolgus (WGS isoform) Gal10-His in the same set-up.

human Gal10-His [2] = target: T1, human Gal10-His; assay: SPR Biacore 3000, purified hFab 20 nM on Gal10-His-coated CM5
[3] = target: T2, cynomolgus Gal10-His (WGS isoform) (cynomolgus); assay: SPR Biacore 3000, hFab on captured cynomolgus Gal10-His (WGS); column head prints (M), the text gives nM
T2 construct: also called cynomolgus antigen
Description: as §1, §2

human Gal10-His [4] = target: T1, human Gal10-His; assay: SPR Biacore 3000, control on Gal10-His-coated CM5
Description: The off-rate of the remaining 25 clones of the ELISA experiment was determined by SPR on a Biacore 3000 instrument. Periplasmic extracts were injected on a CM5 sensor chip coated with 2500 RU Gal10-His.

[5] = target: T2, cynomolgus Gal10-His (WGS isoform); assay: SPR Biacore 3000, hFab on cynomolgus Gal10-His (WGS) captured by anti-His CM5
Description: as §1, §2

human Gal10-His [6] = target: T1, human Gal10-His; assay: SPR Biacore 3000, purified hFab (2 conc.) on Gal10-His captured by anti-His CM5
Description: The binding properties of the selected Fab clones to human Gal10 were analyzed via a capture method established on a Biacore 3000 instrument. Two concentrations of the selected Fab clones were tested on human Gal10-His immobilized on a CM5 chip coated with a monoclonal anti-His. As controls, the clone g7B07 and g7B07_N53A were injected at the beginning and the end of the run. Briefly, a CM5 chip was coated with a monoclonal anti-His antibody (4000 RU), then a fixed concentration of the human Gal10-His (25 μg/mL) was captured on the anti-His chip before receiving two concentrations of the clones in the human Fab backbone.

human Gal10-His [7] = target: T1, human Gal10-His; assay: SPR Biacore 3000, hFab on captured human Gal10-His; column head prints (M), the text gives nM
Description: as §1, §2

human Gal10-His [8] = target: T1, human Gal10-His; assay: summary of periplasmic extract screening (BLI or SPR); control
human Gal10-His [9] = target: T1, human Gal10-His; assay: BLI Octet RED96, Gal10-His captured on anti-Penta-His tips

B1: g7B07 (human Fab) (Fab, V domains shown)
VH: EVQLLESGGGLVQPGGSLRLSCAASGFTFRSYDMSWVRQAPGKGLEWVSAIKNGGGITYYADSVKGRFTISRDNSKNTLYLQMNSLRAEDTAVYYCATTHGIGTLGFGSWGQGTLVTVSS
VL: SYELTQPLSVSVALGQTARITCDGNNIGSKSAQWYQQKPGQAPVLVIYADEYRPEGIPERFSGSNSGNTATLTISRAQAGDEADYYCQVWDGSAAVFGGGTQLTVL
notes: Human Fab backbone; their format is not certain; also called g7B07-hFab; germlined 7B07
With B1 the “Amplitude R0” value (human Gal10-His [1]) was 607 RU, the koff (human Gal10-His [1]) was 0.006 s⁻¹ and the kon (human Gal10-His [1]) was 670000 M⁻¹ s⁻¹. The “Fold off-rate compared to g7B07” value (human Gal10-His [2]) was 1 fold, the koff (human Gal10-His [2]) was 0.0069 s⁻¹ and the Kd [3] was 69.5 nM. For the same binder, the “Fold off-rate compared to g7B07” value (human Gal10-His [4]) was 1 fold, the koff (human Gal10-His [4]) was 0.00218 s⁻¹ and the “Amplitude R0” value [5] was 64 RU. The koff [5] was 0.13 s⁻¹, the kon [5] was 1.9e+06 M⁻¹ s⁻¹ and the Kd (human Gal10-His [6]) was 11.1 nM. For the same binder, the “kd-fold drop vs g7B07” value (human Gal10-His [6]) was 1 fold, the koff (human Gal10-His [6]) was 0.0047 s⁻¹ and the kon (human Gal10-His [6]) was 420000 M⁻¹ s⁻¹. For the same binder, the Kd (human Gal10-His [7]) was 9.08 nM, the “kd, fold compared to g7B07 (BLI or SPR)” value (human Gal10-His [8]) was 1 fold and the “kd fold difference to reference” value (human Gal10-His [9]) was 1 fold. The koff (human Gal10-His [9]) was 0.00754 s⁻¹.
